{"source": "patent US20240117018A1", "experiment_in_all_cases": "cell-based or functional assay", "key": {"[1]": {"molecular_target": "HIV-1 Env pseudovirus 231966.c02 (HIV-1)"}, "[2]": {"molecular_target": "HIV-1 Env pseudovirus 89-F1_2_25 (HIV-1)"}, "[3]": {"molecular_target": "HIV-1 Env pseudovirus BJOX010000.06.2 (HIV-1)"}, "[4]": {"molecular_target": "HIV-1 Env pseudovirus BJOX015000.11.5 (HIV-1)"}, "[5]": {"molecular_target": "HIV-1 Env pseudovirus X1254_c3 (HIV-1)"}, "[6]": {"molecular_target": "HIV-1 Env pseudovirus X2131_C1_B5 (HIV-1)"}, "[7]": {"molecular_target": "Env of HIV-1 pseudovirus 191084 B7-19 (HIV-1)"}, "[8]": {"molecular_target": "Env of HIV-1 pseudovirus 246F C1G (HIV-1)"}, "[9]": {"molecular_target": "Env of HIV-1 pseudovirus 249M B10 (HIV-1)"}, "[10]": {"molecular_target": "Env of HIV-1 pseudovirus BF1266.431a (HIV-1)"}, "[11]": {"molecular_target": "Env of HIV-1 pseudovirus CAP45.2.00.G3 (HIV-1)"}, "[12]": {"molecular_target": "Env of HIV-1 pseudovirus CNE19 (HIV-1)"}, "[13]": {"molecular_target": "Env of HIV-1 pseudovirus CNE21 (HIV-1)"}, "[14]": {"molecular_target": "Env of HIV-1 pseudovirus CNE53 (HIV-1)"}, "[15]": {"molecular_target": "Env of HIV-1 pseudovirus Ce1086_B2 (HIV-1)"}, "[16]": {"molecular_target": "Env of HIV-1 pseudovirus Ce2060_G9 (HIV-1)"}, "[17]": {"molecular_target": "Env of HIV-1 pseudovirus Ce704809221_1B3 (HIV-1)"}, "[18]": {"molecular_target": "Env of HIV-1 pseudovirus HIV-16845-2.22 (HIV-1)"}, "[19]": {"molecular_target": "Env of HIV-1 pseudovirus MS208.A1 (HIV-1)"}, "[20]": {"molecular_target": "Env of HIV-1 pseudovirus T250-4 (HIV-1)"}, "[21]": {"molecular_target": "Env of HIV-1 pseudovirus ZM135M.PL10a (HIV-1)"}, "[22]": {"molecular_target": "Env of HIV-1 pseudovirus ZM197M.PB7 (HIV-1)"}}, "data": [{"substance": "8ANC195 (antibody)", "values": [{"measurement": "IC50 (Titer in TZM.bl cells)", "setting": "[1]", "value": 0.54, "unit": "µg/mL"}, {"measurement": "IC80 (Titer in TZM.bl cells)", "setting": "[1]", "value": 2.98, "unit": "µg/mL"}, {"measurement": "IC50 (Titer in TZM.bl cells)", "setting": "[2]", "value": "> 50", "unit": "µg/mL"}, {"measurement": "IC80 (Titer in TZM.bl cells)", "setting": "[2]", "value": "> 50", "unit": "µg/mL"}, {"measurement": "IC50 (Titer in TZM.bl cells)", "setting": "[3]", "value": 0.85, "unit": "µg/mL"}, {"measurement": "IC80 (Titer in TZM.bl cells)", "setting": "[3]", "value": 5.84, "unit": "µg/mL"}, {"measurement": "IC50 (Titer in TZM.bl cells)", "setting": "[4]", "value": 0.97, "unit": "µg/mL"}, {"measurement": "IC80 (Titer in TZM.bl cells)", "setting": "[4]", "value": 4.3, "unit": "µg/mL"}, {"measurement": "IC50 (Titer in TZM.bl cells)", "setting": "[5]", "value": 6.95, "unit": "µg/mL"}, {"measurement": "IC80 (Titer in TZM.bl cells)", "setting": "[5]", "value": 6.95, "unit": "µg/mL"}, {"measurement": "IC50 (Titer in TZM.bl cells)", "setting": "[6]", "value": 3.47, "unit": "µg/mL"}, {"measurement": "IC80 (Titer in TZM.bl cells)", "setting": "[6]", "value": "> 50", "unit": "µg/mL"}]}, {"substance": "3BNC117 (antibody)", "values": [{"measurement": "IC50 (Titer in TZM.bl cells)", "setting": "[1]", "value": 0.29, "unit": "µg/mL"}, {"measurement": "IC80 (Titer in TZM.bl cells)", "setting": "[1]", "value": 2.37, "unit": "µg/mL"}, {"measurement": "IC50 (Titer in TZM.bl cells)", "setting": "[2]", "value": "> 50", "unit": "µg/mL"}, {"measurement": "IC80 (Titer in TZM.bl cells)", "setting": "[2]", "value": "> 50", "unit": "µg/mL"}, {"measurement": "IC50 (Titer in TZM.bl cells)", "setting": "[3]", "value": 1.58, "unit": "µg/mL"}, {"measurement": "IC80 (Titer in TZM.bl cells)", "setting": "[3]", "value": 10.4, "unit": "µg/mL"}, {"measurement": "IC50 (Titer in TZM.bl cells)", "setting": "[4]", "value": 0.05, "unit": "µg/mL"}, {"measurement": "IC80 (Titer in TZM.bl cells)", "setting": "[4]", "value": 0.32, "unit": "µg/mL"}, {"measurement": "IC50 (Titer in TZM.bl cells)", "setting": "[5]", "value": 0.08, "unit": "µg/mL"}, {"measurement": "IC80 (Titer in TZM.bl cells)", "setting": "[5]", "value": 0.27, "unit": "µg/mL"}, {"measurement": "IC50 (Titer in TZM.bl cells)", "setting": "[6]", "value": 0.43, "unit": "µg/mL"}, {"measurement": "IC80 (Titer in TZM.bl cells)", "setting": "[6]", "value": 1.96, "unit": "µg/mL"}]}, {"substance": "PG9 (antibody)", "values": [{"measurement": "IC50", "setting": "[7]", "value": 0.043, "unit": "µg/mL"}, {"measurement": "IC80", "setting": "[7]", "value": 0.202, "unit": "µg/mL"}, {"measurement": "IC50", "setting": "[8]", "value": "> 50", "unit": "µg/mL"}, {"measurement": "IC80", "setting": "[8]", "value": "> 50", "unit": "µg/mL"}, {"measurement": "IC50", "setting": "[9]", "value": 0.095, "unit": "µg/mL"}, {"measurement": "IC80", "setting": "[9]", "value": 0.29, "unit": "µg/mL"}, {"measurement": "IC50", "setting": "[10]", "value": 0.026, "unit": "µg/mL"}, {"measurement": "IC80", "setting": "[10]", "value": 0.088, "unit": "µg/mL"}, {"measurement": "IC50", "setting": "[11]", "value": 0.007, "unit": "µg/mL"}, {"measurement": "IC80", "setting": "[11]", "value": 0.029, "unit": "µg/mL"}, {"measurement": "IC50", "setting": "[12]", "value": 0.024, "unit": "µg/mL"}, {"measurement": "IC80", "setting": "[12]", "value": 0.146, "unit": "µg/mL"}, {"measurement": "IC50", "setting": "[13]", "value": 0.038, "unit": "µg/mL"}, {"measurement": "IC80", "setting": "[13]", "value": 0.094, "unit": "µg/mL"}, {"measurement": "IC50", "setting": "[14]", "value": 0.131, "unit": "µg/mL"}, {"measurement": "IC80", "setting": "[14]", "value": 0.6, "unit": "µg/mL"}, {"measurement": "IC50", "setting": "[15]", "value": "> 50", "unit": "µg/mL"}, {"measurement": "IC80", "setting": "[15]", "value": "> 50", "unit": "µg/mL"}, {"measurement": "IC50", "setting": "[16]", "value": 0.045, "unit": "µg/mL"}, {"measurement": "IC80", "setting": "[16]", "value": 0.172, "unit": "µg/mL"}, {"measurement": "IC50", "setting": "[17]", "value": 0.037, "unit": "µg/mL"}, {"measurement": "IC80", "setting": "[17]", "value": 0.137, "unit": "µg/mL"}, {"measurement": "IC50", "setting": "[18]", "value": 4.4, "unit": "µg/mL"}, {"measurement": "IC80", "setting": "[18]", "value": "> 50", "unit": "µg/mL"}, {"measurement": "IC50", "setting": "[19]", "value": 0.005, "unit": "µg/mL"}, {"measurement": "IC80", "setting": "[19]", "value": 0.014, "unit": "µg/mL"}, {"measurement": "IC50", "setting": "[20]", "value": 0.005, "unit": "µg/mL"}, {"measurement": "IC80", "setting": "[20]", "value": 0.014, "unit": "µg/mL"}, {"measurement": "IC50", "setting": "[21]", "value": 20.6, "unit": "µg/mL"}, {"measurement": "IC80", "setting": "[21]", "value": "> 50", "unit": "µg/mL"}, {"measurement": "IC50", "setting": "[22]", "value": 0.899, "unit": "µg/mL"}, {"measurement": "IC80", "setting": "[22]", "value": 4.52, "unit": "µg/mL"}]}, {"substance": "VRC07 (antibody)", "values": [{"measurement": "IC50 (Titer in TZM.bl cells)", "setting": "[1]", "value": 0.105, "unit": "µg/mL"}, {"measurement": "IC80 (Titer in TZM.bl cells)", "setting": "[1]", "value": 0.471, "unit": "µg/mL"}, {"measurement": "IC50 (Titer in TZM.bl cells)", "setting": "[2]", "value": "> 50", "unit": "µg/mL"}, {"measurement": "IC80 (Titer in TZM.bl cells)", "setting": "[2]", "value": "> 50", "unit": "µg/mL"}, {"measurement": "IC50 (Titer in TZM.bl cells)", "setting": "[3]", "value": 1.06, "unit": "µg/mL"}, {"measurement": "IC80 (Titer in TZM.bl cells)", "setting": "[3]", "value": 10, "unit": "µg/mL"}, {"measurement": "IC50 (Titer in TZM.bl cells)", "setting": "[4]", "value": 0.054, "unit": "µg/mL"}, {"measurement": "IC80 (Titer in TZM.bl cells)", "setting": "[4]", "value": 0.479, "unit": "µg/mL"}, {"measurement": "IC50 (Titer in TZM.bl cells)", "setting": "[5]", "value": 0.041, "unit": "µg/mL"}, {"measurement": "IC80 (Titer in TZM.bl cells)", "setting": "[5]", "value": 0.2, "unit": "µg/mL"}, {"measurement": "IC50 (Titer in TZM.bl cells)", "setting": "[6]", "value": 0.219, "unit": "µg/mL"}, {"measurement": "IC80 (Titer in TZM.bl cells)", "setting": "[6]", "value": 1.03, "unit": "µg/mL"}]}]}
